Measurements published in the supplement of paper PMC9170038.

Tested on: MS2 coat protein
Assay: apparent KD of MS2 coat protein; designed switch direction (-1 OFF switch, 1 ON switch): -1; higher = weaker reporter binding
In short: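 Designed RNA switches sharing common flanks were transcribed on Illumina chips by stalled E. coli RNA polymerase. They were titrated with SNAP-549-labelled MS2 coat protein, from 0.7 or 1.5 nM doubling to 3 µM, in Tris-HCl pH 7.5 buffer with KCl, MgCl2, BSA, DTT, tRNA and Tween-20. Titrations ran without input, with 200 uM small-molecule ligand, or with an oligonucleotide input. The apparent KD of each design is the median over its clusters, after curve-fitting of normalised cluster fluorescence.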

[1] = Eterna round: R95, input ligand: microRNA oligo, concentration not stated
[2] = input ligand: microRNA oligo, concentration not stated
[3] = Eterna round: R95, input ligand: FMN 200 uM
[4] = Eterna round: R95, input ligand: none

| Sequence | apparent KD of MS2 coat protein (input ligand: FMN 200 uM) [nM] | apparent KD of MS2 coat protein (input ligand: none) [nM] | apparent KD of MS2 coat protein [1] [nM] | further results |
| --- | --- | --- | --- | --- |
| GGGUGACAUGAGGAUCACCCAUGUCAGGAUAUGGGCUCGGGCUCGAAAGGGUCUGGGUCUAGAAGGGACUGCCC [-36.1, -35.1 kcal, 22%A (-3 GC series)] (Eterna round: R97, puzzle: Exclusion 1) | 137 | 67 |  |  |
| GGGUGUCGAGUUAGGAUAUCGAUGCCGUAACGGCUCGAGAAGGGACUUGAGGAUCACCCAAGUCUGGUCGAGGC [Rierariis] (Eterna round: R97, puzzle: Brourd's mod of Exclusion 4) | 23.4 | 18.4 |  |  |
| GGUACACAUGAGGAUCACCCAUGUCAGGAUAUCUGGAUACUCUUUAUUUUAGAUAUCCAGAGAAGGGACGUGCC [Ex1-3: 9Z] (puzzle: Exclusion 1) |  |  | 29.7 |  |
| GGUACUCAAAGAGUACCAAUACGAACAUGAGGAUCACCCAUGUAGGAUAUGCUACUCAAAGAGUAGCAGAAGGAUAUGAACCUC [Far Half Aptamer v10] (Eterna round: R96, puzzle: Exclusion NG 3) | 407 | 227 |  | apparent KD of MS2 coat protein [2]: 204 nM |
| GGUAGAGAGCAGGAUAUCUUGGGUAAGUAUUGUAGAGAAGGGCUCACAUGAGGAUCACCCAUGUGGUCCAAGAU [JL Dibiri mod 06] (puzzle: Exclusion 6) |  |  | 12.8 |  |
| GGUCCUGAUGAUUUCCUAUACAUGAGGAUCACCCAUGUAUGUUUAUUUUGUUUUUAGCUUUUUGGUCGUCAAUAAUA [Mod-Hoo-honey-3] (Eterna round: R97, puzzle: Sensor, turn-off variant 1) | 43.3 | 43.4 |  |  |
| GGUCCUGAUGAUUUUCUAUACAUGAGGAUCACCCAUGUAUGUGUAUUUUGUUUUUCGCUUUUUGGUCGUCAAUAAUA [Mod-Hoo-honey] (Eterna round: R97, puzzle: Sensor, turn-off variant 1) | 43.8 | 44.3 |  |  |
| GGUCCUGAUGAUUUUCUAUACAUGAGGAUCACCCAUGUAUGUUUAUUUUGUUUUUCGCUUUUUGGUCGUCAAUAAUA [Honey] (Eterna round: R97, puzzle: Sensor, turn-off variant 1) | 44.1 | 41.6 |  |  |
| GGUCGGCGAGGAUAUACAUGAGGAUCACCCAUGUGAUAGAUUAUCGCGAAAGCGUAAUGUAGAAGGCGCUGACG [jl-ex3-4.10 jl mod] (Eterna round: R97, puzzle: Exclusion 3) | 1280 | 40.7 |  |  |
| GGUCUACAUGAGGAUCACCCAUGUUAGGAUAUGCUUCGUCGGGCUAUACACGGCGGAUGUAGAAGGGACCUGGU [Eternabot (L1) Solution 83] (Eterna round: R97, puzzle: Exclusion 1) | 16.7 | 20.2 |  |  |
| GGUCUGCGAGGAUAUACAUGAGGAUCACCCAUGUGCGAGAAACUAGUGAGGUCGAUUGGUAGAAGGCGCGGACG [Mat - Exclusion 3 - Mod of JL D83] (puzzle: Exclusion 3) |  |  | 113 | apparent KD of MS2 coat protein [3]: 74.1 nM; apparent KD of MS2 coat protein [4]: 210 nM |
| GGUCUGCGAGGAUAUACAUGAGGAUCACCCAUGUGCGUGAUACUAGUGAGGUCGGUUGGUAGAAGGCGCGGACG [JL-ex3-2.08 salish99 mod] (puzzle: Exclusion 3) |  |  | 245 | apparent KD of MS2 coat protein [3]: 128 nM; apparent KD of MS2 coat protein [4]: 649 nM |
| GGUGAGCGAGGAUAUACAUGAGGAUCACCCAUGUGAGAGAAAUAAGUGAGGAAGAAAAGUAGAAGGCGCGAACG [Mat - Exclusion 3 - Mod of Salish D46] (puzzle: Exclusion 3) |  |  | 25.3 | apparent KD of MS2 coat protein [3]: 114 nM; apparent KD of MS2 coat protein [4]: 29.3 nM |
| GGUGCGUGUGUGAGGAUAUGCUGGUCCUUGGAUCAGCAGAAGGCACAUGAGGAUCACCCAUGUGGUGUCGUACC [salish99_Bmod_Ex4_029] (puzzle: Brourd's mod of Exclusion 4) |  |  | 232 |  |
| GGUGCGUUUGUGAGGAUAUGCUGGUCCUUGGUUCGGCAGAAGGCACAUGAGGAUCACCCAUGUGGUGUCGUCCC [salish99_Bmod_Ex4_046] (puzzle: Brourd's mod of Exclusion 4) |  |  | 32 |  |
| GGUGGACAUGAGGAUCACCCAUGUGAGGAUAUCGGCUAUCUUCUCGCUGUCGGUUGCUCGAGAAGGCACAUUGU [Exclusion 1 V94] (Eterna round: R96, puzzle: Exclusion 1) | 112 | 64.9 |  | apparent KD of MS2 coat protein [2]: 50.1 nM |

| Sequence | apparent KD of MS2 coat protein (input ligand: FMN 200 uM) [nM] | apparent KD of MS2 coat protein (input ligand: none) [nM] | apparent KD of MS2 coat protein [1] [nM] | further results |
| --- | --- | --- | --- | --- |
| GGUGGACAUGAGGAUCACCCAUGUGAGGAUAUCGGCUAUCUUCUCGCUGUCGGUUGCUCGAGAAGGCACAUUGU [Exclusion 1 V94] (puzzle: Exclusion 1) |  |  | 52.2 |  |
| GGUGGACAUGAGGAUCACCCAUGUGAGGAUAUCGGCUGGCUACUCGCUGACGGCUGCUCGAGAAGGCGCAUUGU [Exclusion 1 V88] (puzzle: Exclusion 1) |  |  | 41.7 |  |
| GGUGGACAUGAGGAUCACCCAUGUGAGGAUAUCGGCUGGCUAGUGGCGGCUGGCUUCUCGAGAAGGCGCAUAGU [Exclusion 1 V79] (puzzle: Exclusion 1) |  |  | 42.2 |  |
| GGUGGGCUAGGAUAUGCUUUGGGAGGGCAUUCCUUCGAUAAACUUGAGGAUCACCCAAGUAGAAGGAGCUUGCC [salish99_ex2_r4_022] (Eterna round: R97, puzzle: Exclusion 2) | 33.9 | 15.3 |  |  |
| GGUUAGAUGGUAGGAUAUCCAUAUCGAGUGACCCUUUCAUAACAUGAGGAUCACCCAUGUCGGUGGGAGAAGGGCCGUACGGCG [salish99_ExNG02_R04_011] (Eterna round: R96, puzzle: Exclusion NG 2) | 35.5 | 33.2 |  | apparent KD of MS2 coat protein [2]: 38.3 nM |
| GGUUAGCGAGGAUAUACAUGAGGAUCACCCAUGUGAUCCUAAGGCUGAUCAAGCCUAUGUAGAAGGCGCAAAUC [salish99_ex3_r4_008] (Eterna round: R97, puzzle: Exclusion 3) | 40.1 | 227 |  |  |
| GGUUGGCGAGGAUAUACAUGAGGAUCACCCAUGUGAGAGAAACUAGUGAGGUCGAUUGGUAGAAGGCGCUGACG [Mat - Exclusion 3 - Mod of JL D81] (puzzle: Exclusion 3) |  |  | 204 | apparent KD of MS2 coat protein [3]: 25.3 nM; apparent KD of MS2 coat protein [4]: 129 nM |
| GGUUGGCGAGGAUAUACAUGAGGAUCACCCAUGUGAGAGGAAAAAGUGAGGAAGAAAAGUAGAAGGCGCUGACG [salish99_ex3_r3_002] (puzzle: Exclusion 3) |  |  | 60.8 | apparent KD of MS2 coat protein [3]: 142 nM; apparent KD of MS2 coat protein [4]: 56.7 nM |
| GGUUGGCGAGGAUAUACAUGAGGAUCACCCAUGUGGUCCUGAGAUAGAAUAGCCCUUUGUAGAAGGCGCGGGUC [salish99_ex3_r4_044] (Eterna round: R97, puzzle: Exclusion 3) | 203 | 166 |  |  |
| GGUUGGCGAGGAUAUACAUGAGGAUCACCCAUGUGGUCCUGUGGCUGAUCUAGCCUAUGUAGAAGGCGCAAAUC [salish99_ex3_r4_013] (Eterna round: R97, puzzle: Exclusion 3) | 311 | 139 |  |  |
| GUAAACGCAGAGGAUAUAUCAGAUCAAAGCUGCAUAGAAGGCUGCACAUGAGGAUCACCCAUGUGGUCUUUAAG [Mat - Exclusion 6 - JL Mod - D4] (Eterna round: R97, puzzle: Exclusion 6) | 128 | 18.4 |  |  |
| GUAAGGCAUCUAGGAUAUAGUAUACGGCGAACAUGAGGAUCACCCAUGUGUCCGAAUGCGGCGAGCUAGAAGGAGAAAUUGCCC [Enuszarima] (Eterna round: R96, puzzle: Exclusion NG 2) | 51.4 | 33.4 |  | apparent KD of MS2 coat protein [2]: 25.4 nM |
| GUACUGACAGGAUAUACAUGAGGAUCACCCAUGUGCCUUAAUGCUACAAAAGUAGCGAGUAGAAGGGUCUGUAC [Omei Ex3 Model Bachelor's Dilema v12] (Eterna round: R97, puzzle: Exclusion 3) | 119 | 20.7 |  |  |
| GUAGGGUCAGGAUAUACGGGCGGAGGGAUGUAUUGUAGUUGGUAGAAGGGACAUGAGGAUCACCCAUGUAAGAA [JR_Exclu4_Sub055] (puzzle: Exclusion 4) |  |  | 25.3 |  |
| GUAUAACAUGAGGAUCACCCAUGUCAGGAUAUGCGAAUUUCAUCAAAAGAUGAAAUUUGCAGAAGGGACUGUAC [Omei Ex1 A25] (Eterna round: R97, puzzle: Exclusion 1) | 73.9 | 67.6 |  |  |
| GUAUAACAUGUAGGAUAUGCAUGGCAAAGCUAUGCAGAAGGACAUGAGGAUCACCCAUGUAAUAGCGUCUGCGUACAGAUGCAA [Mat - Exclusion NG 1 - Mod of JL - D92] (Eterna round: R96, puzzle: Exclusion NG 1) | 165 | 33.9 |  | apparent KD of MS2 coat protein [2]: 31 nM |
